Experimental data reported in article PMC5558965, “Cysteine-rich protein 2 accelerates actin filament cluster formation” (PLoS ONE, 2017).

Target: Actin protein (from Bovine skeletal muscle), polymerised to F-actin (bovine, UniProt P68138 1-377)
Assay: cell-based or functional assay

B1: Cysteine-rich protein 2 (CRP2), recombinant mouse, full length, with (His)6 tag at the C-terminus (natural protein)
chain: MPVWGGGNKCGACGRTVYHAEEVQCDGRSFHRCCFLCMVCRKNLDSTTVAIHDEEIYCKSCYGKKYGPKGYGYGQGAGTLNMDRGERLGIKPESAQPHRPTTNPNTSKFAQKYGGAEKCSRCGDSVYAAEKIIGAGKPWHKNCFRCAKCGKSLESTTLTEKEGEIYCKGCYAKNFGPKGFGYGQGAGALVHAQ
SAXS decreasing ratio d (0.01 < Q < 0.016) of F-actin; F-actin:CRP2 ratio 1:0 to 1:4.6 (d 1.4 to 3.4): 3.4
